Laboratory results published in patent publication US20250304713A1, “COMBINATION IMMUNOTHERAPY COMPOSITIONS AND METHODS OF USE THEREOF” (THE PENN STATE RESEARCH FOUNDATION, priority 2022, published 2025).

Assays:
9464D-GD2 cells = assay: Cell viability, CellTiter-Glo; assay type: cell-based, mouse; details: 0.1 μM tipifarnib; 24, 48, 72 h
Method: 9464D-GD2 cells were seeded in a white, opaque 96-well plate. The following day, cells were treated with increasing doses of tipifarnib, and cell viability was measured at 24, 48 and 72 hours post-treatment using the CellTiter-Glo® Luminescent Cell Viability Assay (Promega, G7573) according to manufacturer's instructions. Microplate luminescence was measured using a CLARIOstar (BMG Labtech) plate reader. All data were normalized to non-treated controls. 9464D cells or 9464D crRab27a cells were plated at a density of 5000 cells/well in a 96-well plate and monitored for confluence using the Incucyte S3 μLive Cell Imaging System (Sartorius). The percent cell confluence was quantified using Incucyte Basic Cell Analysis package (Sartorius).

9464D-GD2 tumors = assay: 9464D-GD2 syngeneic subcutaneous neuroblastoma model, tumor growth, volume and weight; assay type: in vivo, mouse
Method: (§1) All animal studies were performed according to guidelines established by the Institutional Animal Care and Use Committee (IACUC) at the Penn State College of Medicine (Hershey, PA). An immunocompetent mouse model of neuroblastoma was generated by subcutaneously injecting 1×10^6 9464D-GD2 cells in a 50:50 mixture of DMEM and Matrigel (Corning, 354234) into C57BL/6J mice (8- to 10-week-old, JAX 000664) with male and female mice represented at an equal ratio. One week following tumor cell inoculation, mice were randomized into treatment groups. Where indicated, mice were treated twice-weekly by tail-vein injection with PBS (100 μL), dinutuximab ([…] in 100 μL PBS), purified sEVs from 9464D-GD2 cells ([…] in 100 μL PBS), or the combination of dinutuximab and sEVs. Where indicated, tipifarnib (25 mg/kg) or an equivalent volume of vehicle was administered twice daily by oral gavage. Primary tumor growth was monitored by measuring tumor volume using calipers (volume=π(length*width^2)/6). At the experimental endpoint, mice were euthanized, and tumor, blood, spleen and bone marrow were harvested for ex vivo analysis. Endpoint tumor volume was calculated by measuring tumors using calipers (volume=π(length*width*height)/6).

splenic NK cells = assay: Flow cytometry of splenic NK cell subpopulations (maturation); assay type: in vivo, mouse
Method: (§2) Murine tumors and spleens were harvested at the experimental endpoint and mechanically disassociated. Tumors were further digested with tumor digestion buffer ([…] Collagenase Type I (Thermo Fisher, 17018029) and 2000 Units/ml DNase (Sigma-Aldrich, DN25-100MG) in HBSS buffer at room temperature for 1 hour. Dissociated tumor cells and spleen cells were passed through a 70 μm cell strainer (Falcon BD, 352350), pelleted, and washed once with PBS supplemented with 1% FBS. Red blood cells were lysed with RBC lysis buffer (0.0155 M NH4Cl, 1.2 mM NaHCO3, 0.01 mM Na2EDTA, pH 7.4 in distilled water) for 3 minutes on ice and neutralized with PBS supplemented with 10% FBS. Cells were centrifuged and resuspended in FACS buffer to obtain single cell suspensions.
as §1, with “(volume=π(length*width*height)/6). […]” for “(volume=π(length*width*height)/6).”

[1] = tested on: tumor-infiltrating NK cells, T-cells and tumor-associated macrophages in 9464D-GD2 tumors; assay: Flow cytometry of tumor-infiltrating immune cells (NK cells, T-cells, TAMs); assay type: in vivo, mouse
Method: as §2, §1
For cell surface staining, approximately 1×10^6 cells were stained with pre-mixed antibody cocktail panels (Table 1) in 100 μL FACS buffer (1% FBS, 0.2% NaN3 in PBS) for 30 minutes on ice. Cells were washed twice with FACS buffer and fixed with 2% paraformaldehyde (Fisher Scientific, 50-980-487) for 15 minutes. Fixed cells were washed once with PBS and resuspended in 0.5 mL FACS buffer for flow cytometric analysis using a LSR II or Symphony flow cytometer (BD Biosciences). Compensation was performed using UltraComp eBeads™ compensation beads (Invitrogen). FlowJo™ v10 (FlowJo, LLC) software was used for data analysis.

[2] = tested on: NK cells (NK1.1+CD3-) in blood; assay: Flow cytometry of blood NK cells of tumor-bearing mice; assay type: in vivo, mouse
Method: as §1, with “(volume=π(length*width*height)/6). […]” for “(volume=π(length*width*height)/6).”

[3] = day 30, treatment as FIG. 1D (FIG. 3C)
[4] = day 24, treatment as FIG. 4D (FIG. 5A)

Cn1cncc1[C@@](N)(c1ccc(Cl)cc1)c1ccc2c(c1)c(-c1cccc(Cl)c1)cc(=O)n2C [tipifarnib]
cytotoxicity (cell viability) (9464D-GD2 cells): absence of cytotoxicity

B1: dinutuximab (antibody, chains of the INN, looked up, V domains shown)
VH: EVQLLQSGPELEKPGASVMISCKASGSSFTGYNMNWVRQNIGKSLEWIGAIDPYYGGTSYNQKFKGRATLTVDKSSSTAYMHLKSLTSEDSAVYYCVSGMEYWGQGTSVTVSS
VL: EIVMTQSPATLSVSPGERATLSCRSSQSLVHRNGNTYLHWYLQKPGQSPKLLIHKVSNRFSGVPDRFSGSGSGTDFTLKISRVEAEDLGVYFCSQSTHVPPLTFGAGTKLELK
notes: chimeric monoclonal antibody against the disialoganglioside GD2
tumor growth (tumor volume over time) (9464D-GD2 tumors; dinutuximab 1.25 mg/kg and/or 9464D-GD2 sEVs 20 μg, tail vein twice weekly from one week post-inoculation, to day 30, vs PBS (FIG. 1E)): dramatically suppressed tumor growth | tumor growth and weight, sEV rescue experiment (9464D-GD2 tumors; dinutuximab and/or tipifarnib with or without sEVs, day 24 (FIG. 6B-D)): mild anti-tumor activity alone | percentage of mature NK cells in the spleen (CD27-CD11b+) (splenic NK cells; day 24, treatment as FIG. 4D, vs control or tipifarnib alone (FIG. 5C)): significantly increased the percentage of mature NK cells in the spleen | percentage of mature splenic NK cells (CD27-CD11b+) (splenic NK cells; [3]): increased the percentage of mature splenic NK cells | percentage of splenic NK cells with immature phenotype (CD27+CD11b-) (splenic NK cells; [3]): significantly decreased the percentage of splenic NK cells with an immature phenotype | TAM population (CD11b+F4/80+) [1, 4]: decreasing TAMs | tumor-infiltrating NK cells (NK1.1+CD3-) [1, 4]: enhancing the mobilization of NK cells and percentages of tumor-infiltrating NK cells and T-cells | tumor-infiltrating T-cells (CD3+NK1.1-) [1, 4]: enhancing the mobilization of NK cells and percentages of tumor-infiltrating NK cells and T-cells | tumor-associated macrophage (TAM) population (CD11b+F4/80+) ([1]; day 30, treatment as FIG. 1D (FIG. 2E bottom)): significantly decreased the TAM population | tumor-infiltrating NK cell population (NK1.1+CD3-) ([1]; day 30, treatment as FIG. 1D (FIG. 2E top)): significantly increased the tumor-infiltrating NK cell population | level of circulating NK cells (mobilization) ([2]; day 24, treatment as FIG. 4D (FIG. 5B)): enhancing the mobilization of NK cells | percentage of serum (blood) NK cells, NK cell mobilization ([2]; day 30, treatment as FIG. 1D (FIG. 2F)): significant increase in the percentage of serum NK cells
